Test results taken from patent US20110144007A1 (IPSEN PHARMA S A S, published 2011).
Non-standard residues stand in square brackets, D forms with d. No end group written: not given here. *: point of attachment. Psu = N-propylsuccinimide on Cys S (Cys alkylated with N-propylmaleimide), CCCN1C(=O)CC(*)C1=O; Myristoyl = CCCCCCCCCCCCCC(=O)*; Ac6c = NC1(C(=O)O)CCCCC1; Nle = CCCC[C@H](N)C(=O)O; Orn = NCCC[C@H](N)C(=O)O; Ac5c = NC1(C(=O)O)CCCC1; Aib = CC(C)(N)C(=O)O

Biological target: T1, human recombinant GIP receptor (human, UniProt P48546 22-466)
T1 construct: whole, on cells; Assayed as washed membrane preparations of CHO-K1 clonal cells expressing the receptor; also called hGIP receptor
T1 sequence (looked up): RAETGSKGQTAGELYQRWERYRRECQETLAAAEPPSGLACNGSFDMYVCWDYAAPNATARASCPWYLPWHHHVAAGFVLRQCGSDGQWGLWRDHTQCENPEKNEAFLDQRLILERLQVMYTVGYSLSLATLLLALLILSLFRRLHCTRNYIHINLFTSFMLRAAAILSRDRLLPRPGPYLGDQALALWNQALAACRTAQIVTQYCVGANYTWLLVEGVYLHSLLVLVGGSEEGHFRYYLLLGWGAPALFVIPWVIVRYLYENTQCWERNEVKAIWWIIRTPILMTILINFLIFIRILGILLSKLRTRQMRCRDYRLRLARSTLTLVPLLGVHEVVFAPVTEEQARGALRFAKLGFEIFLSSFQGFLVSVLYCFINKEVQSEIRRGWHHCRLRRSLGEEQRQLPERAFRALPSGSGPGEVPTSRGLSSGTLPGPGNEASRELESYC
Test: displacement of [125I]GIP from membranes of CHO-K1 cells expressing human recombinant GIP receptor

B1: (Aib^13, Nle^14, Phe^43)hGIP(1-43)-OH (peptide)
peptide: YAEGTFISDYSI[Aib][Nle]DKIHQQDFVNWLLAQKGKKNDWKHNITQF-OH
notes: Synthetic analogue of human GIP with an added Phe at position 43
In the case of B1, the Ki is reported as 3.15 nM.

B2: (A5c^11, 14)hGIP(1-30)-NH2 (peptide)
peptide: YAEGTFISDYXIAXDKIHQQDFVNWLLAQK
modifications: A5c at 11 and 14; C-terminal amide
notes: Synthetic truncated analogue of human GIP
For B2, the Ki was 0.78 nM.

B3: [A5c^11, Lys^43(N-C(O)-(CH2)10-CH3)]hGIP(1-43)-OH (peptide)
peptide: YAEGTFISDYXIAMDKIHQQDFVNWLLAQKGKKNDWKHNITQK
modifications: A5c at 11; Lys(N-C(O)-(CH2)10-CH3) at 43; C-terminal free acid
notes: Synthetic acylated analogue of human GIP
B3 showed a Ki of 0.83 nM.

YAEGTFISDYXIAMDKIHQQDFVNWLLAQKGKKNDWKHNITQX (A5c at 11; Ado (12-aminododecanoic acid) at 43; C-terminal free acid, Synthetic analogue of human GIP) [(A5c^11, Ado^43)hGIP(1-43)-OH] gave a Ki of 31.6 nM.

B4: [A5c^11, Orn^33(N-C(O)-(CH2)10-CH3), His^43]hGIP(1-43)-OH (peptide)
peptide: YAEGTFISDYXIAMDKIHQQDFVNWLLAQKGKXNDWKHNITQH
modifications: A5c at 11; Orn(N-C(O)-(CH2)10-CH3) at 33; C-terminal free acid
notes: Synthetic acylated analogue of human GIP with an added His at position 43
Work on B4 yielded a Ki of 9.1 nM.

B5: [A5c^11, Orn^32(N-C(O)-(CH2)10-CH3), His^43]hGIP(1-43)-OH (peptide)
peptide: YAEGTFISDYXIAMDKIHQQDFVNWLLAQKGXKNDWKHNITQH
modifications: A5c at 11; Orn(N-C(O)-(CH2)10-CH3) at 32; C-terminal free acid
notes: as for B4
B5 was tested, and the Ki was 5.3 nM.

B6: (A5c^11, 41, Cys^43)hGIP(1-43)-NH2 (peptide)
peptide: YAEGTFISDYXIAMDKIHQQDFVNWLLAQKGKKNDWKHNIXQC
modifications: A5c at 11 and 41; C-terminal amide
notes: Synthetic analogue of human GIP with an added Cys at position 43
With B6 the Ki was 0.51 nM.

B7: [A5c^11,41, Cys^43(succinimide-N-30K PEG)]hGIP(1-43)-NH2 (peptide)
peptide: YAEGTFISDYXIAMDKIHQQDFVNWLLAQKGKKNDWKHNIXQC
modifications: A5c at 11 and 41; Cys(succinimide-N-30K PEG) at 43; C-terminal amide
notes: Synthetic PEGylated analogue of human GIP
B7 showed a Ki of 0.69 nM.

B8: (A5c^11, Nle^14, His^43)hGIP(1-43)-OH (peptide)
peptide: YAEGTFISDYXIAXDKIHQQDFVNWLLAQKGKKNDWKHNITQH
modifications: A5c at 11; Nle at 14; C-terminal free acid
notes: Synthetic analogue of human GIP with an added His at position 43
Binder B8 has a Ki of 0.72 nM.

B9: [A5c^11, Lys^43(N-C(O)-(CH2)14-CH3)]hGIP(1-43)-OH (peptide)
peptide: YAEGTFISDYXIAMDKIHQQDFVNWLLAQKGKKNDWKHNITQK
modifications: A5c at 11; Lys(N-C(O)-(CH2)14-CH3) at 43; C-terminal free acid
notes: as for B3
B9 was tested, and the Ki was 1.25 nM.

B10: (A5c^11, 14, His^43)hGIP(1-43)-OH (peptide)
peptide: YAEGTFISDYXIAXDKIHQQDFVNWLLAQKGKKNDWKHNITQH
modifications: A5c at 11 and 14; C-terminal free acid
notes: as for B8
For B10, the Ki was 0.59 nM.

B11: (Aib^13, Asp^43)hGIP(1-43)-NH2 (peptide)
peptide: YAEGTFISDYSIXMDKIHQQDFVNWLLAQKGKKNDWKHNITQD
modifications: Aib (alpha-aminoisobutyric acid) at 13; C-terminal amide
notes: Synthetic analogue of human GIP with an added Asp at position 43
With B11 the Ki was 0.6 nM.

B12: [A5c^11, Orn^33(N-C(O)-(CH2)14-CH3), His^43]hGIP(1-43)-OH (peptide)
peptide: YAEGTFISDYXIAMDKIHQQDFVNWLLAQKGKXNDWKHNITQH
modifications: A5c at 11; Orn(N-C(O)-(CH2)14-CH3) at 33; C-terminal free acid
notes: as for B3
B12 showed a Ki of 26.4 nM.

B13: [A5c^11, Orn^32(N-C(O)-(CH2)14-CH3), His^43]hGIP(1-43)-OH (peptide)
peptide: YAEGTFISDYXIAMDKIHQQDFVNWLLAQKGXKNDWKHNITQH
modifications: A5c at 11; Orn(N-C(O)-(CH2)14-CH3) at 32; C-terminal free acid
notes: as for B3
Binder B13 has a Ki of 41.6 nM.

B14: [A5c^11,41, Cys^43(succinimide-N-20K PEG)]hGIP(1-43)-NH2 (peptide)
peptide: YAEGTFISDYXIAMDKIHQQDFVNWLLAQKGKKNDWKHNIXQC
modifications: A5c at 11 and 41; Cys(succinimide-N-20K PEG) at 43; C-terminal amide
notes: as for B7
Binder B14 has a Ki of 0.7 nM.

B15: (A5c^11, Ala^43)hGIP(1-43)-OH (peptide)
peptide: YAEGTFISDYXIAMDKIHQQDFVNWLLAQKGKKNDWKHNITQA
modifications: A5c at 11; C-terminal free acid
notes: Synthetic analogue of human GIP with an added Ala at position 43
With B15 the Ki was 3.43 nM.

B16: (A5c^11, Thr^43)hGIP(1-43)-OH (peptide)
peptide: YAEGTFISDYXIAMDKIHQQDFVNWLLAQKGKKNDWKHNITQT
modifications: A5c at 11; C-terminal free acid
notes: Synthetic analogue of human GIP with an added Thr at position 43
B16 showed a Ki of 3.13 nM.

B17: (A5c^11, His^43)hGIP(1-43)-OH (peptide)
peptide: YAEGTFISDYXIAMDKIHQQDFVNWLLAQKGKKNDWKHNITQH
modifications: A5c at 11; C-terminal free acid
notes: as for B8
B17 showed a Ki of 0.54 nM.

B18: (Aib^13, Trp^43)hGIP(1-43)-OH (peptide)
peptide: YAEGTFISDYSIXMDKIHQQDFVNWLLAQKGKKNDWKHNITQW
modifications: Aib at 13; C-terminal free acid
notes: Synthetic analogue of human GIP with an added Trp at position 43
With B18 the Ki was 2.76 nM.

B19: (A5c^11, Asn^43)hGIP(1-43)-OH (peptide)
peptide: YAEGTFISDYXIAMDKIHQQDFVNWLLAQKGKKNDWKHNITQN
modifications: A5c at 11; C-terminal free acid
notes: Synthetic analogue of human GIP with an added Asn at position 43
Binder B19 has a Ki of 0.21 nM.

YAEGTF[Ac6c]SDYSIAMDKIHQQDFVNWLLAQK[Orn](Myristoyl)KKNDWKHNITQ-OH (Synthetic analogue of human GIP) [[A6c^7, Orn^31(N-C(O)-(CH2)12-CH3)]hGIP(1-42)-OH] gave a Ki of 18.1 nM.

Work on YAEGTF[Ac6c]SDYSIAMDKIHQQDFVNWLLAQKGKKNDWKHNITC(Psu)-OH (Synthetic analogue of human GIP) [[A6c^7, Cys(Psu)^42]hGIP(1-42)-OH] yielded a Ki of 30.4 nM.

Binder YAEGTF[Ac6c]SDYSIAMDKIHQQDFVNWLLAQKGKKNDWKHNI[Ac6c]Q-OH (Synthetic analogue of human GIP) [(A6c^7, 41)hGIP(1-42)-OH] has a Ki of 8.79 nM.

B20: (A6c^11, 14, 41)hGIP(1-42)-OH (peptide)
peptide: YAEGTFISDYXIAXDKIHQQDFVNWLLAQKGKKNDWKHNIXQ
modifications: A6c (1-amino-1-cyclohexanecarboxylic acid) at 11, 14 and 41; C-terminal free acid
notes: Synthetic analogue of human GIP
B20 showed a Ki of 4.72 nM.

Binder YAEGTFISDYXIAXDKIHQQDFVNWLLAQKGKKNDWKHNXTQ (A6c at 11, 14 and 40; C-terminal free acid, Synthetic analogue of human GIP) [(A6c^11, 14, 40)hGIP(1-42)-OH] has a Ki of 1.3 nM.

Work on YAEGTFISDYXIAMDKIHQQDFVNWLLAQKGKKNDWKHNXTQ (A5c at 11 and 40; C-terminal free acid, Synthetic analogue of human GIP) [(A5c^11, 40)hGIP(1-42)-OH] yielded a Ki of 0.62 nM.

YAEGTFISDYSIXMDKIHQQDFVNWLLAQKGKKNDWKHNXTQ (Aib at 13; A5c at 40; C-terminal free acid, Synthetic analogue of human GIP) [(Aib^13, A5c^40)hGIP(1-42)-OH] was tested, and the Ki was 5.74 nM.

For YAEGTFISDYXIAMDKIHQQDFVNWLLAQKGKKNDWKHNIXQ (A5c (1-amino-1-cyclopentanecarboxylic acid) at 11 and 41; C-terminal free acid, Synthetic analogue of human GIP) [(A5c^11, 41)hGIP(1-42)-OH], the Ki was 0.12 nM.

B21: [A5c^11,41, Cys^32(succinimide-N-20K PEG)]hGIP(1-42)-NH2 (peptide)
peptide: YAEGTFISDYXIAMDKIHQQDFVNWLLAQKGCKNDWKHNIXQ
modifications: A5c at 11 and 41; Cys(succinimide-N-20K PEG) at 32; C-terminal amide
notes: as for B7
Binder B21 has a Ki of 0.7 nM.

B22: (A5c^11, 41, Cys^32)hGIP(1-42)-NH2 (peptide)
peptide: YAEGTFISDYXIAMDKIHQQDFVNWLLAQKGCKNDWKHNIXQ
modifications: A5c at 11 and 41; C-terminal amide
notes: Synthetic analogue of human GIP with Cys at position 32
In the case of B22, the Ki is reported as 0.9 nM.

B23: (A5c^11, 41, Cys^33)hGIP(1-42)-NH2 (peptide)
peptide: YAEGTFISDYXIAMDKIHQQDFVNWLLAQKGKCNDWKHNIXQ
modifications: A5c at 11 and 41; C-terminal amide
notes: Synthetic analogue of human GIP with Cys at position 33
For B23, the Ki was 1.05 nM.

B24: (A5c^11, His^31)hGIP(1-31)-NH2 (peptide)
peptide: YAEGTFISDYXIAMDKIHQQDFVNWLLAQKH
modifications: A5c at 11; C-terminal amide
notes: Synthetic truncated analogue of human GIP with His at position 31
Work on B24 yielded a Ki of 0.44 nM.

B25: (A5c^11)hGIP(1-30)-NH2 (peptide)
peptide: YAEGTFISDYXIAMDKIHQQDFVNWLLAQK
modifications: A5c at 11; C-terminal amide
notes: as for B2
For B25, the Ki was 0.82 nM.

In the case of YAEGTFISDYSI[Aib][Nle]DKIHQQDFVNWLLAQKGKKNDWKHN[Ac5c]TQ-OH (Synthetic analogue of human GIP) [(Aib^13, Nle^14, A5c^40)hGIP(1-42)-OH], the Ki is reported as 0.23 nM.

YAEGTF[Ac6c]SDYSIAMDKIHQQDFVNWLLAQKGKKN[Orn](Myristoyl)WKHNITQ-OH (Synthetic analogue of human GIP) [[A6c^7, Orn^35(N-C(O)-(CH2)12-CH3)]hGIP(1-42)-OH] showed a Ki of 10.3 nM.

In the case of YAEGTF[Ac6c]SDYSIA[Nle]DKIHQQDFVNWLLAQKGKKNDWKHNI[Ac6c]Q-OH (Synthetic analogue of human GIP) [(A6c^7, 41, Nle^14)hGIP(1-42)-OH], the Ki is reported as 26.1 nM.
